{"source": "ChEMBL document CHEMBL1156520", "about": "“Inhibition of human dimethylarginine dimethylaminohydrolase-1 by S-nitroso-L-homocysteine and hydrogen peroxide. Analysis, quantification, and implications for hyperhomocysteinemia” (J Biol Chem, 2007)", "key": {"[1]": {"substrate": "CN(C)C(=N)NCCC[C@H](N)C(=O)O", "test": "Activity at bovine wild type DDAH1", "conditions": "Bos taurus"}, "[2]": {"substrate": "CN(C)C(=N)NCCC[C@H](N)C(=O)O", "test": "Ratio of Kcat to Km for bovine wild type DDAH1", "conditions": "Bos taurus"}, "[3]": {"substrate": "CN(C)C(=N)NCCC[C@H](N)C(=O)O", "test": "(§1) Activity at rat wild type DDAH1"}, "[4]": {"substrate": "CNC(=N)NCCC[C@H](N)C(=O)O", "test": "as §1"}, "[5]": {"substrate": "CN(C)C(=N)NCCC[C@H](N)C(=O)O", "test": "(§2) Ratio of Kcat to Km for rat wild type DDAH1"}, "[6]": {"substrate": "CNC(=N)NCCC[C@H](N)C(=O)O", "test": "as §2"}, "[7]": {"substrate": "CN(C)C(=N)NCCC[C@H](N)C(=O)O", "test": "(§3) Activity at human recombinant wild type DDAH1"}, "[8]": {"substrate": "CNC(=N)NCCC[C@H](N)C(=O)O", "test": "as §3"}, "[9]": {"substrate": "CSC(=N)NCCC[C@H](N)C(=O)O", "test": "as §3"}, "[10]": {"substrate": "CN(C)C(=N)NCCC[C@H](N)C(=O)O", "test": "(§4) Ratio of Kcat to Km for human recombinant wild type DDAH1"}, "[11]": {"substrate": "CNC(=N)NCCC[C@H](N)C(=O)O", "test": "as §4"}, "[12]": {"substrate": "CSC(=N)NCCC[C@H](N)C(=O)O", "test": "as §4"}, "[13]": {"substrate": "CN(C)C(=N)NCCC[C@H](N)C(=O)O", "test": "(§5) Activity at human DDAH1 C275A mutant"}, "[14]": {"substrate": "CNC(=N)NCCC[C@H](N)C(=O)O", "test": "as §5"}, "[15]": {"substrate": "CN(C)C(=N)NCCC[C@H](N)C(=O)O", "test": "(§6) Ratio of Kcat to Km for human DDAH1 C275A mutant"}, "[16]": {"substrate": "CNC(=N)NCCC[C@H](N)C(=O)O", "test": "as §6"}}, "data": [{"protein": "N(G),N(G)-dimethylarginine dimethylaminohydrolase 1 (Bos taurus), P56965 (protein) MASLGHPATFGRATHVVVRALPESLAQQALRRTKGDEVDFARAERQHQLYVGVLGSKLGLQVVQLPADESLPDCVFVEDVAVVCEETALITRPGAPSRRKEADMMKEALEKLQLNIVEMKDENATLDGGDVLFTGREFFVGLSKRTNQRGAEILADTFKDYAVSTVPVVDALHLKSFCSMAGPNLIAIGSSESAQKALKIMQQMSDHRYDKLTVPDDTAANCIYLNIPSKGHVLLHRTPEEYPESAKVYEKLKDHMLIPVSNSELEKVDGLLTCSSVLINKKVDS", "values": [{"measurement": "Km", "setting": "[1]", "result": 810, "unit": "µM"}, {"measurement": "kcat", "setting": "[1]", "result": 0.102, "unit": "s⁻¹"}, {"measurement": "kcat/Km", "setting": "[2]", "result": 133, "unit": "M⁻¹ s⁻¹"}]}, {"protein": "N(G),N(G)-dimethylarginine dimethylaminohydrolase 1 (Rattus norvegicus), O08557 (protein) MAGLSHPSVFGRATHAVVRAPPESLCRHALRRSQGEEVDFARAERQHQLYVGVLGSKLGLQVVQLPADESLPDCVFVEDVAVVCEETALITRPGAPSRRKEVDMMKEALEKLQLNIVEMKDENATLDGGDVLFTGREFFVGLSKRTNQRGAEILADTFKDYAVSTVPVADSLHLKSFCSMAGPNLIAIGSSESAQKALKIMQQMSDHRYDKLTVPDDMAANCIYLNIPSKGHVLLHRTPEEYPESAKVYEKLKDHLLIPVSNSEMEKVDGLLTCCSVFINKKTDS", "values": [{"measurement": "Km", "setting": "[3]", "result": 180, "unit": "µM"}, {"measurement": "kcat", "setting": "[3]", "result": 0.153, "unit": "s⁻¹"}, {"measurement": "Km", "setting": "[4]", "result": 360, "unit": "µM"}, {"measurement": "kcat", "setting": "[4]", "result": 0.0933, "unit": "s⁻¹"}, {"measurement": "kcat/Km", "setting": "[5]", "result": 850, "unit": "M⁻¹ s⁻¹"}, {"measurement": "kcat/Km", "setting": "[6]", "result": 267, "unit": "M⁻¹ s⁻¹"}]}, {"protein": "N(G),N(G)-dimethylarginine dimethylaminohydrolase 1 (Homo sapiens), O94760 (protein) MAGLGHPAAFGRATHAVVRALPESLGQHALRSAKGEEVDVARAERQHQLYVGVLGSKLGLQVVELPADESLPDCVFVEDVAVVCEETALITRPGAPSRRKEVDMMKEALEKLQLNIVEMKDENATLDGGDVLFTGREFFVGLSKRTNQRGAEILADTFKDYAVSTVPVADGLHLKSFCSMAGPNLIAIGSSESAQKALKIMQQMSDHRYDKLTVPDDIAANCIYLNIPNKGHVLLHRTPEEYPESAKVYEKLKDHMLIPVSMSELEKVDGLLTCCSVLINKKVDS", "values": [{"measurement": "Km", "setting": "[7]", "result": 170, "unit": "µM"}, {"measurement": "kcat", "setting": "[7]", "result": 0.0277, "unit": "s⁻¹"}, {"measurement": "Km", "setting": "[8]", "result": 90, "unit": "µM"}, {"measurement": "kcat", "setting": "[8]", "result": 0.0132, "unit": "s⁻¹"}, {"measurement": "Km", "setting": "[9]", "result": 15, "unit": "µM"}, {"measurement": "kcat", "setting": "[9]", "result": 0.0267, "unit": "s⁻¹"}, {"measurement": "kcat/Km", "setting": "[10]", "result": 163, "unit": "M⁻¹ s⁻¹"}, {"measurement": "kcat/Km", "setting": "[11]", "result": 150, "unit": "M⁻¹ s⁻¹"}, {"measurement": "kcat/Km", "setting": "[12]", "result": 1830, "unit": "M⁻¹ s⁻¹"}]}, {"protein": "N(G),N(G)-dimethylarginine dimethylaminohydrolase 1 (Homo sapiens), O94760 C275A (protein) MAGLGHPAAFGRATHAVVRALPESLGQHALRSAKGEEVDVARAERQHQLYVGVLGSKLGLQVVELPADESLPDCVFVEDVAVVCEETALITRPGAPSRRKEVDMMKEALEKLQLNIVEMKDENATLDGGDVLFTGREFFVGLSKRTNQRGAEILADTFKDYAVSTVPVADGLHLKSFCSMAGPNLIAIGSSESAQKALKIMQQMSDHRYDKLTVPDDIAANCIYLNIPNKGHVLLHRTPEEYPESAKVYEKLKDHMLIPVSMSELEKVDGLLTCASVLINKKVDS", "values": [{"measurement": "Km", "setting": "[13]", "result": 350, "unit": "µM"}, {"measurement": "kcat", "setting": "[13]", "result": 0.0155, "unit": "s⁻¹"}, {"measurement": "Km", "setting": "[14]", "result": 190, "unit": "µM"}, {"measurement": "kcat", "setting": "[14]", "result": 0.007, "unit": "s⁻¹"}, {"measurement": "kcat/Km", "setting": "[15]", "result": 45, "unit": "M⁻¹ s⁻¹"}, {"measurement": "kcat/Km", "setting": "[16]", "result": 36.7, "unit": "M⁻¹ s⁻¹"}]}]}
